According to patent US20150139990A1 (DAINIPPON SUMITOMO PHARMA, published 2015):
Residue numbers refer to the chain shown, from its start. Names may count otherwise.

T1: human CD81 mutant D137A (human, UniProt P60033 1-236, limits assumed)
T1 construct: as m30; not shown: C-terminal V5 and 6xHis tags
T1 sequence: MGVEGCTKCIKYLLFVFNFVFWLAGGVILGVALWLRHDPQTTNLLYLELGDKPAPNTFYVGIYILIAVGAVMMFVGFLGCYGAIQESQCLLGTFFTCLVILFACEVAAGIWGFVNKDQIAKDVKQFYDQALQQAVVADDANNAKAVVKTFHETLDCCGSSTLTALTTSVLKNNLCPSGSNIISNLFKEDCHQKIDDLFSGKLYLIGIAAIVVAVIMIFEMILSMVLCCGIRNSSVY

T2: human CD81 mutant G158S (human, UniProt P60033 1-236, limits assumed)
T2 construct: as m30; not shown: C-terminal V5 and 6xHis tags
T2 sequence: T1 sequence with A137D, G158S

T3: human CD81 mutant T163A (human, UniProt P60033 1-236, limits assumed)
T3 construct: as m30; not shown: C-terminal V5 and 6xHis tags
T3 sequence: T1 sequence with A137D, T163A

T4: human CD81 mutant V135A (human, UniProt P60033 1-236, limits assumed)
T4 construct: as m30; not shown: C-terminal V5 and 6xHis tags
T4 sequence: T1 sequence with V135A, A137D

T5: human CD81 mutant L165A (human, UniProt P60033 1-236, limits assumed)
T5 construct: as m30; not shown: C-terminal V5 and 6xHis tags
T5 sequence: T1 sequence with A137D, L165A

T6: human CD81 mutant I194A (human, UniProt P60033 1-236, limits assumed)
T6 construct: as m30; not shown: C-terminal V5 and 6xHis tags
T6 sequence: T1 sequence with A137D, I194A

T7: human CD81 mutant V169A (human, UniProt P60033 1-236, limits assumed)
T7 construct: as m30; not shown: C-terminal V5 and 6xHis tags
T7 sequence: T1 sequence with A137D, V169A

T8: human CD81 mutant A164T (human, UniProt P60033 1-236, limits assumed)
T8 construct: as m30; not shown: C-terminal V5 and 6xHis tags
T8 sequence: T1 sequence with A137D, A164T

T9: human CD81 mutant D137E (human, UniProt P60033 1-236, limits assumed)
T9 construct: as m30; not shown: C-terminal V5 and 6xHis tags
T9 sequence: T1 sequence with A137E

T10: human CD81 on CD81-expressing cells (Jurkat E6.1, human PBMC, Ramos) (human, UniProt P60033 1-236)
T10 sequence: T1 sequence with A137D

B1: 002-A07 IgG4 antibody (antibody)
heavy: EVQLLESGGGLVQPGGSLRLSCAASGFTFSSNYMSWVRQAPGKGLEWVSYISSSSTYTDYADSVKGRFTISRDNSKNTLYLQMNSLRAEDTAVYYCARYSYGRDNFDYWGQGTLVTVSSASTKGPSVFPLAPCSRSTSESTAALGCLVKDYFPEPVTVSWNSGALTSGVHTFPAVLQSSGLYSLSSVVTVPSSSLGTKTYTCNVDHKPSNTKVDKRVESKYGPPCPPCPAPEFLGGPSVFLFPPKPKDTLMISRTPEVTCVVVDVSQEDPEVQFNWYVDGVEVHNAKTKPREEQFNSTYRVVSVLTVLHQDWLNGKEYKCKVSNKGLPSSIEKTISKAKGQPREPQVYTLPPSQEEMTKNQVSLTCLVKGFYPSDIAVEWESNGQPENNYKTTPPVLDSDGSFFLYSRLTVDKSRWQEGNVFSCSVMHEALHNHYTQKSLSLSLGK
light: QSVLTQPPSASGTPGQRVTISCTGSTSNIGAGYDTHWYQQLPGTAPKLLIYGNSNRPSGVPDRFSGSKSGTSASLAISGLRSEDEADYYCQSYDTNLSVWVFGGGTKLTVLGQPKAAPSVTLFPPSSEELQANKATLVCLISDFYPGAVTVAWKADSSPVKAGVETTTPSKQSNNKYAASSYLSLTPEQWKSHRSYSCQVTHEGSTVEKTVAPTECS
notes: human IgG4 S228P, lambda light chain
B2: 003-D07 (antibody, human IgG4 S228P, lambda, V domains shown)
VH: EVQLLESGGGLVQPGGSLRLSCAASGFTFSSNYMSWVRQAPGKGLEWVSYISSSSTYTDYADSVKGRFTISRDNSKNTLYLQMNSLRAEDTAVYYCARYSYDRDNFDYWGQGTLVTVSS
VL: QSVLTQPFSASGTPGQRVTISCTGSTSNIGAGYDTHWYQHLPGTAPKLLIYGNSNRPSGVPDRFSGSKSGTSASLAISGLRSEDEADYYCQSYDTNLSVWVFGGGTKLTVLG
notes: IgG4 S228P
B3: 002-A07 S115A (antibody, human IgG4 S228P, lambda, V domains shown)
VH: B2 VH with D102G
VL: B2 VL with F8P, H40Q, S98A
notes: IgG4 S228P; glycosylation site mutant of 002-A07 VL
B4: 002-A07 S115G (antibody, human IgG4 S228P, lambda, V domains shown)
VH: B2 VH with D102G
VL: B2 VL with F8P, H40Q, S98G
notes: as for B3
B5: 002-A07 N113S (antibody, human IgG4 S228P, lambda, V domains shown)
VH: B2 VH with D102G
VL: B2 VL with F8P, H40Q, N96S
notes: as for B3
B6: 002-A07 N113Q (antibody, human IgG4 S228P, lambda, V domains shown)
VH: B2 VH with D102G
VL: B2 VL with F8P, H40Q, N96Q
notes: as for B3
B7: 002-A07 N113G (antibody, human IgG4 S228P, lambda, V domains shown)
VH: B2 VH with D102G
VL: B2 VL with F8P, H40Q, N96G
notes: as for B3

Target: T1, human CD81 mutant D137A
Experiment: ELISA

| relative binding affinity [%] | Binder |
| --- | --- |
| < 20 | B1 |
| < 20 | B2 |
| < 20 | B3 |
| < 20 | B4 |
| < 20 | B5 |
| < 20 | B6 |
| < 20 | B7 |

Target: T2, human CD81 mutant G158S
Experiment: ELISA

| relative binding affinity [%] | Binder |
| --- | --- |
| < 20 | B1 |
| < 20 | B2 |
| < 20 | B3 |
| < 20 | B4 |
| < 20 | B5 |
| < 20 | B6 |
| < 20 | B7 |

Target: T3, human CD81 mutant T163A
Experiment: ELISA

| relative binding affinity [%] | Binder |
| --- | --- |
| < 20 | B1 |
| < 20 | B3 |
| < 20 | B4 |
| < 20 | B5 |
| < 20 | B6 |
| < 20 | B7 |

Target: T4, human CD81 mutant V135A
Experiment: ELISA

| relative binding affinity [%] | Binder |
| --- | --- |
| < 20 | B1 |
| < 20 | B2 |
| < 20 | B3 |
| < 20 | B4 |
| < 20 | B5 |
| < 20 | B6 |
| < 20 | B7 |

Target: T5, human CD81 mutant L165A
Experiment: ELISA

| relative binding affinity [%] | Binder |
| --- | --- |
| < 20 | B1 |
| < 20 | B2 |
| < 20 | B3 |
| < 20 | B4 |
| < 20 | B5 |
| < 20 | B6 |
| < 20 | B7 |

Target: T6, human CD81 mutant I194A
Experiment: ELISA

| relative binding affinity [%] | Binder |
| --- | --- |
| < 20 | B1 |
| < 20 | B2 |
| < 20 | B3 |
| < 20 | B4 |
| < 20 | B5 |
| < 20 | B6 |
| < 20 | B7 |

Target: T7, human CD81 mutant V169A
Experiment: ELISA

| relative binding affinity [%] | Binder |
| --- | --- |
| < 20 | B1 |
| < 20 | B2 |
| < 20 | B3 |
| < 20 | B4 |
| < 20 | B5 |
| < 20 | B6 |
| < 20 | B7 |

Target: T8, human CD81 mutant A164T
Experiment: ELISA

| relative binding affinity [%] | Binder |
| --- | --- |
| < 20 | B1 |
| < 20 | B2 |
| < 20 | B3 |
| < 20 | B4 |
| < 20 | B5 |
| < 20 | B6 |
| < 20 | B7 |

Target: T9, human CD81 mutant D137E
Experiment: ELISA

| relative binding affinity [%] | Binder |
| --- | --- |
| < 20 | B1 |
| < 20 | B3 |
| < 20 | B4 |
| < 20 | B5 |
| < 20 | B6 |
| < 20 | B7 |

Target: T10, human CD81 on CD81-expressing cells …
Experiment: cell-based or functional assay

| Jurkat chemotaxis (% of control IgG4) at 0.001 µg/mL [%] | Jurkat chemotaxis (% of control IgG4) at 0.01 µg/mL [%] | Jurkat chemotaxis (% of control IgG4) at 0.1 µg/mL [%] | Jurkat chemotaxis (% of control IgG4) at 1 µg/mL [%] | Jurkat chemotaxis (% of control IgG4) at 10 µg/mL [%] | Binder |
| --- | --- | --- | --- | --- | --- |
| 90 | 93 | 21 | -2 | 3 | B1 |
| 87 | 79 | 42 | -5 | -9 | B2 |
| 82 | 78 | 32 | -4 | -9 | B3 |
| 84 | 74 | 13 | -9 | -3 | B4 |
| 99 | 101 | 40 | 13 | 12 | B5 |
| 104 | 99 | 37 | 13 | 12 | B6 |
| 99 | 101 | 38 | 13 | 7 | B7 |
